# Results taken from patent US20220125947A1 (published 2022).
# Substitutions are numbered along the chain they refer to.
# T1: T cell receptor (TCR) Vγ9 (TRGV9) (human, UniProt Q99603 21-122)
# T1 chain (looked up): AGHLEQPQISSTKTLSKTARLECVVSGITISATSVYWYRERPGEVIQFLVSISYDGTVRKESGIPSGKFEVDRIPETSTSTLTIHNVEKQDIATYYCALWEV
# B1: VG9B413 (antibody, human IgG1, kappa)
# heavy: not shown
# light: EIVMTQSPGTLSLSPGDRATLSCRASQSVASSYLAWYQQKPGQSPRLLIYGASSRATGIPDRFSGSGSGTDFTLTISRLEPEDFAVYYCQQYGSSPPYTFGQGTKVEIKRTVAAPSVFIFPPSDEQLKSGTASVVCLLNNFYPREAKVQWKVDNALQSGNSQESVTEQDSKDSTYSLSSTLTLSKADYEKHKVYACEVTHQGLSSPVTKSFNRGEC
# B2: VG9B403 (antibody, human IgG1, kappa)
# heavy: not shown
# light: B1 light with E1D
# B3: VG9B36 (antibody, human IgG1, kappa, V domains shown)
# VH: QVQLVESGGGLVKPGGSLRLSCASSGFTFSSYGMYWVRQAPGKGLEWVSSISTGSSYIYYADSVKGRFTISRDNAKNSLYLQMNSLRAEDTAVYYCARDKGLAVTGYIMDVWGQGTTVTVSS
# VL: EIVLTQSPSSLSASVGDRVTITCQASQDISNYLNWYQQKPGKAPKLLIYDASNLETGVPSRFSGSGSGTDFTFTISSLQPEDIAIYYCQQYDNLPMYTFGQGTKVEIKR
# B4: VG9B384 (antibody, human IgG1, lambda, V domains shown)
# VH: QVQLQESGPALVKPTQTLTLTCTFSGFSLSSSGMCVSWIRQPPGKALEWLTLIDWFDDKYYSTSLKTRLTISKDTSKNQVVLTMTNMDPVDTATYYCARIRGTGAYYYGLDVWGQGTMVTVSS
# VL: SYELMQPPSVSVSPGQTASITCSGNELGDKYASWYQQQPGQSPVLVIYQDNKRPSGIPERFSGSNSGNTATLTISGTQAMDEADYYCQAWDSSKVVFGGGTKLTVLG
# B5: VG9B44 (antibody, human IgG1, kappa, V domains shown)
# VH: QVQLQQSGPGLVKPSQTLSLTCAISGDSVSSNSAAWNWIRQSPSRGLEWLGRTYYRSKWYNDYPISVKSRISINPDTSKNQFSLQLNSVTPEDTAVYYCARESGSYYTDGFDIWGQGTMVTVSS
# VL: DIQMTQSPSFLSASVGDRVTITCRASQGISSYLAWYQQKPGKAPKLLIYAASTLQSGVPSRFSGSGSGTEFTLTISSLQPEDFATYYCQEFNSYPYTFGQGTKLEIKR
# B6: VG9B191 (antibody, human IgG1, lambda, V domains shown)
# VH: EVQLVQSGGGLVKPGGSLRLSCAASGFTFSRYSMNWVRQAPGKGLEGVSSISSSSSYIYYADSVKGRFTISRDNAKNSLYLQMNSLRAEDTAVYYCARDGPTVNWDYYFDLWGRGTLVTVSS
# VL: QSVLTQPPSVSAAPGQKVTISCSGSSSNIGNNYVSWYQQLPGTAPKLLIYDNNKRPSGIPDRFSGSKSGTSATLGITGLQTGDEADYYCGTWDSSLSTSVVFGGGTKLTVLG
# Biological target: T1, T cell receptor (TCR) Vγ9 (TRGV9)
# Test: cell-based or functional assay
# For CD25+ (Vg9+ cells), flow staining in this document: test concentration or dose not given here.
# For CD71+ (Vg9+ cells), flow staining in this document: test concentration or dose not given here.
Binder,"CD25+ (Vg9+ cells), flow staining [%]","CD71+ (Vg9+ cells), flow staining [%]","Granzyme B, Luminex (supernatant)","IFNγ, Luminex (supernatant)","IL6, Luminex (supernatant)","TNFα, Luminex (supernatant)","Vg9 T cell %, flow staining [%]"
B1,44.9,98.8,5800,2830,1960,229,13.3
B2,36.2,97.5,3020,1390,175,102,7.2
B3,29.1,89.4,3890,2580,607,188,7.8
B4,26.4,89.9,2300,1100,610,3740,3.4
B5,45.4,98.8,3030,1150,587,198,14.4
B6,42.4,93.6,3370,1380,400,7320,5.2
